Results: patent US20110311550A1 (Scripps Research, published 2011)
Substitutions are numbered along the chain they refer to.

B1: Fab B5 (Fab, V domains shown)
VH: EVQLLESGAEVKKPGSSVKVSCRASGSPYSSYTITWVRQAPGQGLEWMGGIILMTGKANYAQKFQGRVTITADRATATAYMEMSSLTSDDTAIYYCARDPYVYAGDDVWSLSRWGQGTPVIVSS
VL: ELTQSPLSLPVIIGQPASISCSSSESLVDSDGNTYLHWFQQRPGQSPRRLIYKVSNRDAGVPDRFSGSGSGTDFTLKISRVEAEDVAVYYCMQATHWPPITFGPGTRLEVKR
B2: Fab R1 (Fab, V domains shown)
VH: VQLLEQSGAEVKKPGASVKVSCKASGYTFSIYGVAWVRQAPGQGLEWMGWISPQNGDTHSPQKFQGRLTMTTDTSTSTAYMELRSLRSDDTAVYFCARDYGVNFGGGSEHNLDYWGRGTRVTVSS
VL: ELTQSPLSLPVTPGEPASISCRSSYSLLHINGYKYLDWYLQRPGQSPQLLIYLGSNRAPGVPDRFSGSGSGTSFTLKISRVEAEDVGVYYCMQSLQAPWTFGQGTKVEMKR
B3: Fab J5 (Fab, V domains shown)
VH: VQLLEQSGAEVKKPGSSVTVSCKASGGTVSSYPITWVRQAPGQGLEWMGGTIPVFGAPKYAPKFQGRVTITADESTSTAYMELRSLRSDDTAMYYCAIVGMRGITLVGGLAMNWLDPWGQGTLVIVSS
VL: ELTQSPGTLSLSPGERATLSCRASQSVSSNYLAWYQQKPGQAPRLLIYGASSRATGIPDRFSGSGSGTDFTLSISRLEPEDFAVYYCQQYGSSPLTFGGGTKVEIKR
B4: Fab E2 (antibody clone, not the glycoprotein) (Fab, V domains shown)
VH: VGLLEQSGAELKKPGSSVKVSCKPSDGTFRAYTLSWVRQAPGQTLEWLGRIMPTVGITNYAQKFQGRVTISADMSTATAYMQLSSLRPDDTAIYYCAKGPYVGLGEGFSEWGQGTLVTVSS
VL: ELTQSPLSLPVTLGQPASISCRSSQSLVYSDGNTYLIWFQQRPGQSPRRLIYNVSNRDSGVPDRFSGSGSGTDFTLKISRVEAEDLGVYYCMQGAHWPPTFGQGTRLEIKG
B5: Fab E3 (Fab, V domains shown)
VH: B4 VH with T44A, L48M, Q62R, Q82E, P88S
VL: ELVLTQSPLSLPVTLGQPASISCRSTQSLVYSDGNTYLNWFHQRPGQPPRRLIYKVSNRDSGVPERFSGSGSGTDFALKISRVEADDVGIYYCMQGAHWPPTFGGGTKVEISR
B6: Fab B4 (Fab, V domains shown)
VH: VQLLEQSGAEVKKPGSSVKVSCRASGSPFSSYTITWVRQAPGQGLEWMGGIILMTGKANYAQKFQGRVTITADRSTTTAYMEMSSPTSDDTAIYYCARDPYVYAGDDVWSLSRWGQGTLVIVSP
VL: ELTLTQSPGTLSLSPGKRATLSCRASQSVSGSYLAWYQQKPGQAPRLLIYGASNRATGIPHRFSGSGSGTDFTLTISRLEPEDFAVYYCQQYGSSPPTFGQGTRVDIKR
B7: Fab B6b (Fab, V domains shown)
VH: B1 VH with E1V, V2Q, Q3L, L5E, E6Q, I121T
VL: ELTQSPGTLSLSPGERATLSCRASQSVSRGNLAWYQQKRGQPPRLLIYGASYRATGIPDRFSGSGSGTDFTLTITKLEPEDFAVYYCQQYGHSLAFGQGTKVEIKG
B8: Fab B6a (Fab, V domains shown)
VH: B1 VH with E1V, V2Q, Q3L, L5E, E6Q, I121T
VL: LTQSPGTLSLSPGERATLSCRASQSVASNYVAWYQQKPGQAPRLLIYGTSYRATGIPGRFSGSGSGTDFTLTISGLEPEDFAVYYCQQYGSSPQTFGQGTKVEIKR
B9: Fab B6c (Fab, V domains shown)
VH: B1 VH with E1V, V2Q, Q3L, L5E, E6Q, I121T
VL: not shown
B10: Fab U1 (Fab, V domains shown)
VH: VQLLEQSGPEVKRPGTSVKMSCKISGGASITQAMSWVRQAPGQGLEWMGGITPIFGTVNYAQKILGRVTITADEDTVSLELSSLKSEDTAVYYCAREVNLKTWNLAHPNVFDVWGQGTMLTVSS
VL: ELTQSPSSLSASVGDRVTITCRASQSISSFLNWYQQKPGKAPKLLIYAASSLQSGVPPRFSGSGSGTDFTLTISSLQPEDFATYYCQQSYSTPRTFGQGTKLEIKR
B11: Fab T1 (Fab, V domains shown)
VH: EVQLLESGGGLVQPGGSLRLSCAASGFTFSRFWMHWVRQAPGKGLVWVARINSDGSSTTYADSVKGRFTISRDNAKNTLYLQMNSLRDEDTAVYFCARGGDSSSPYYYPMDVWGQGTTVAVSS
VL: not shown
B12: Fab P6 (Fab, V domains shown)
VH: EVQLLESGGGVVQPGKSLTVSCAASGFTFSTFTMHWVRQAPGKWLEWVAVISHDGGTEHYADSVTGRFTISRDNSKNTLHMQMNSLRLEDTAVYFCARGGPAYYLYNDVLTGYYNVVGDFWGQGTLVTVSS
VL: ELIQSPGTLFLSSGERATLSCRASQSVSSSNLAWFQHKSGRAPRLLIYGASNRAPDIPDRFSGSGSGTDFTISISRLEPEDFAVYYCQRYGDSPPITFGQGTRLEIKR
B13: Fab S1 (Fab, V domains shown)
VH: VQLLEQSGAEVKKPGTSVKVSCTASGYIFTSFGISWVRQAPGQGLEWMGRIDTYNGKTNYAQKLQGRVTMTTDTYTSTAYMELRSLTSDDTAVYYCARDDCRSSTCYLAQHNWQAYYHDSWGQGTLVTVSS
VL: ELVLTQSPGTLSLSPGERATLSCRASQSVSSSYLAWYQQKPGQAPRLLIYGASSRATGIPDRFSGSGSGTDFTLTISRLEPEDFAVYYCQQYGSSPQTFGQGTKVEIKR
B14: Fab Q1 (Fab, V domains shown)
VH: VQLLEQSGAEVRKPGASVKVSCKASGYTFTNNGLNWVRQAPGQGLEWMGWISPYNGDTDFAHKFQGRISMTTDTSTNTAYMELRSLRSDDTAVYYCARDRNSAGGTWLFRDPPPGSTFFDSWGQGSLVTVSS
VL: not shown
B15: Fab Q2 (Fab, V domains shown)
VH: B14 VH with R12K
VL: ELTQSPASLSLSPGGSATLACRASRGVNSNLAWYHQKPGQAPRLLIYSASTRATGIPGRFSGSGFGTEFTLTINNLQSDDFGVYYCQQYDDTPQITFGQGTRLDIKR

What was measured:
[1] = target: HCV E1E2 complex, isolate H77 (genotype 1a) (hepatitis C virus genotype 1a, isolate …, UniProt P27958 192-383; P27958 384-746); assay: Fab screen after panning on E1E2 (H77)
[2] = target: HCV E1E2 antigen, isolate UKN5.15.7 (hepatitis C virus, isolate UKN5.15.7); assay: ELISA, Fab on E1E2 antigen
[3] = target: HCV E1E2 antigen, isolate CH35 (hepatitis C virus, isolate CH35); assay: ELISA, Fab on E1E2 antigen
[4] = target: T1, HCV E1E2 antigen, isolate JFH (hepatitis C virus, isolate JFH, UniProt Q99IB8 192-383; Q99IB8 384-750); assay: ELISA, Fab on E1E2 antigen
T1 construct: also called JFH-1

[5] = target: HCV E1E2 antigen, isolate J6E3 (hepatitis C virus, isolate J6E3, UniProt P26660 192-383; P26660 384-750); assay: ELISA, Fab on E1E2 antigen
[6] = target: HCV E1E2 antigen, isolate UKN3A1.28c (hepatitis C virus, isolate UKN3A1.28c); assay: ELISA, Fab on E1E2 antigen
[7] = target: HCV E1E2 antigen, isolate OH8 (hepatitis C virus, isolate OH8); assay: ELISA, Fab on E1E2 antigen
[8] = target: HCV E1E2 antigen, isolate UKN6.5.8 (hepatitis C virus, isolate UKN6.5.8); assay: ELISA, Fab on E1E2 antigen
[9] = target: HCV E1E2 antigen, isolate UKN2B1.1 (hepatitis C virus, isolate UKN2B1.1); assay: ELISA, Fab on E1E2 antigen
[10] = target: HCV E1E2 antigen, isolate UKN1B12.16 (hepatitis C virus, isolate UKN1B12.16); assay: ELISA, Fab on E1E2 antigen
[11] = target: HCV E1E2 antigen, isolate UKN4.21.16 (hepatitis C virus, isolate UKN4.21.16); assay: ELISA, Fab on E1E2 antigen

Binder	binding result [1]	OD 450 nm [2] [OD 450 nm]	OD 450 nm [3] [OD 450 nm]	OD 450 nm [4] [OD 450 nm]	OD 450 nm [5] [OD 450 nm]	OD 450 nm [6] [OD 450 nm]	OD 450 nm [7] [OD 450 nm]	OD 450 nm [8] [OD 450 nm]	OD 450 nm [9] [OD 450 nm]	OD 450 nm [10] [OD 450 nm]	OD 450 nm [11] [OD 450 nm]
B1	binds										
B2		0	0.15	0	0	0	0.5	0.05	0.02	0.03	0.01
B3	binds										
B4	binds										
B5	binds										
B6	binds										
B7	binds										
B8	binds										
B9	binds										
B10		0.06	0.07	0.07	0.08	0.11	0.26	0.06	0	0.11	0
B11		0.07	0	0	0	0	0.15	0.01	0	0	0.08
B12		0.08	0.21	0	0.02	0.37	0.46	0.12	0.13	0.26	0.23
B13		0.18	0.79	0.21	0.07	0.55	1.32	0.08	0.03	0.26	1.12
B14		0.3	0.48	0.43	0.19	1.07	0.96	0.1	0.03	0.38	0.85
B15		0.05	0.19	0.18	0.25	0.35	0.43	0.16	0.15	0.21	0.17
